In US20210032312A1 (Janssen / Centocor, published 2021):

B1: P282BR9P1357_D12 (designed binder)
chain: LPAPKNLVVSRVTEDSARLSWGQYITAFSFDSFLIQYQESEKVGEAIVLTVPGSERSYDLTGLKPGTEYTVSIYGVDVAWFQGKPTWSNPLSAIFTT
notes: FN3 domain
B2: P282BR9P1357_D2 (designed binder)
chain: LPAPKNLVVSRVTEDSARLSWIKDGHPRHFDSFLIQYQESEKVGEAIVLTVPGSERSYDLTGLKPGTEYTVSIYGVDVVYDRGQLISSNPLSAIFTT
notes: FN3 domain
B3: P282BR9P1357_A9 (designed binder)
chain: LPAPKNLVVSRVTEDSARLSWKANRTTDLHFDSFLIQYQESEKVGEAIVLTVPGSERSYDLTGLKPGTEYTVSIYGVDVQYDGQQPLYSNPLSAIFTT
notes: FN3 domain
B4: P283BR9P1363_C8 (designed binder)
chain: LPAPKNLVVSRVTEDSARLSWAKTSDLHPLFDSFLIQYQESEKVGEAIVLTVPGSERSYDLTGLKPGTEYTVSIYGVDVKWEGNRPVASNPLSAIFTT
notes: FN3 domain
B5: P282BR9P1357_H3 (designed binder)
chain: LPAPKNLVVSRVTEDSARLSWKKREYQDPGFDSFLIQYQESEKVGEAIVLTVPGSERSYDLTGLKPGTEYTVSIYGVDVKWEGNRPVASNPLSAIFTT
notes: FN3 domain
B6: P283BR9P1363_E4 (designed binder)
chain: LPAPKNLVVSRVTEDSARLSWIKSETSQPAFDSFLIQYQESEKVGEAIVLTVPGSERSYDLTGLKPGTEYTVSIYGVDVKWEGNRPVASNPLSAIFTT
notes: FN3 domain
B7: P282BR9P1357_C4 (designed binder)
chain: LPAPNNLVVSRVTEDSARLSWPFVSQNKPHFDSFLIQYQESEKVGEAIVLTVPGSERSYDLTGLKPGTEYTVSIYGVDVKWEGNRPVASNPLSAIFTT
notes: FN3 domain
B8: P283BR9P1363_B6 (designed binder)
chain: LPAPKNLVVSRVTEDSARLSWQRHSDAHPLFDSFLIQYQESEKVGEAIVLTVPGSERSYDLTGLKPGTEYTVSIYGVDVKWEGNRPVASNPLSAIFTT
notes: FN3 domain
B9: P282BR9P1357_B2 (designed binder)
chain: LPAPKNLVVSRVTEDSARLSWNPSEDPQRFDSFLIQYQESEKVGEAIVLTVPGSERSYDLTGLKPGTEYTVSIYGVDVKWEGNRPVASNPLSAIFTT
notes: FN3 domain
B10: P282BR9P1357_C10 (designed binder)
chain: LPAPKNLVVSRVTEDSARLSWWSNDNRPIFDSFLIQYQESEKVGEAIVLTVPGSERSYDLTGLKPGTEYTVSIYGVDVKWEGNRPVASNPLSAIFTT
notes: FN3 domain
B11: P282BR9P1357_E5 (designed binder)
chain: LPAPKNLVVSRVTEDSARLSWWPRKYQRPFDSFLIQYQESEKVGEAIVLTVPGSERSYDLTGLKPGTEYTVSIYGVDIEWIGNRPIASNPLSAIFTT
notes: FN3 domain
B12: P283AR9P1362_D6 (designed binder)
chain: LPAPKNLVVSRVTEDSARLSWAKRPGAFDSFLIQYQESEKVGEAIVLTVPGSERSYDLTGLKPGTEYTVSIYGVDVKYDIDSRPISSNPLSAIFTT
notes: FN3 domain
B13: P283AR9P1362_G11 (designed binder)
chain: LPAPKNLVVSRVTEDSARLSWRKEATSFDSFLIQYQESEKVGEAIVLTVPGSERSYDLTGLKPGTEYTVSIYGVDVKYDIDSRPISSNPLSAIFTT
notes: FN3 domain
B14: P283AR9P1362_E9 (designed binder)
chain: LPAPKNLVVSRVTEDSARLSWVPSPWGFDSFLIQYQESEKVGEAIVLTVPGSERSYDLTGLKPGTEYTVSIYGVDVKYDIDSRPISSNPLSAIFTT
notes: FN3 domain
B15: P283AR9P1362_F2 (designed binder)
chain: LPAPKNLVVSRVTEDSARLSWRKKDHPFDSFLIQYQESEKVGEAIVLTVPGSERSYDLTGLKPGTEYTVSIYGVDVKYDIDSRPISSNPLSAIFTT
notes: FN3 domain
B16: P283AR9P1362_F12 (designed binder)
chain: LPAPKNLVVSRVTEDSARLSWARNITSFDSFLIQYQESEKVGEAIVLTVPGSERSYDLTGLKPGTEYTVSIYGVDVKYDIDSRPISSNPLSAIFTT
notes: FN3 domain
B17: P283BR9P1363_A10 (designed binder)
chain: LPAPKNLVVSRVTEDSARLSWQRADDILPYFDSFLIQYQESEKVGEAIVLTVPGSERSYDLTGLKPGTEYTVSIYGVDVKYDIDSRPISSNPLSAIFTT
notes: FN3 domain

Experiments:
[1] = biological target: T1, human CD8 alpha (CD8A) on primary human CD8+ T cells (human, UniProt P01732 22-235); assay: flow cytometry, human CD8+ T cells, 2 uM FN3
T1 construct: whole, on cells; also called hCD8A
Description: (§1) Binding of the 190 ELISA hits to human and cynomologous monkey primary CD8 T cells was assessed by flow cytometry. The FN3 domain molecules were diluted to 2 μM and 0.2 μM in PBS and incubated with human or cynomologous monkey CD8+ T cells in 96-well format. After 1 hour at 4 C, the cells were washed once with PBS and then resuspended with an anti-FN3 domain antibody (PAB25) solution. Following this incubation, the cells were washed twice with PBS and a PE conjugated secondary antibody and a viability dye were added. Finally, cells were washed and resuspended in PBS for flow cytometric analysis using a BD Canto Instrument. Cells were gating on live cells and median fluorescence intensity of the bound Centyrins (PE channel) was calculated using Cytobank software.

In house human CD8A-Fc = biological target: T2, In house human CD8A-Fc (human, UniProt P01732 22-182, limits assumed); assay: SPR (ProteOn), captured hCD8A-Fc
T2 construct: Captured on goat anti-human Fc on a ProteOn GLC chip; also called hCD8A-Fc; recombinant human CD8 alpha; not shown: linker with flag (and polyhistidine) tag and Fc of human IgG1
Description: Purified anti-CD8A FN3 domains were subjected to off-rate analysis using a Proteon surface plasmon resonance instrument in order to pick clones with the slowest off-rates for further characterization.
The immobilized GAH-Fc IgG densities averaged about 6000 Response Units (Ru) with less than 1% variation among different channels. In house human CD8A-Fc was captured in vertical orientation at 3 different ligand densities, 10, 5, 2.5 μg/ml for 5 minutes at 30 ul/minute flowrate. All FN3 domains were normalized to a 3 μM concentration, and tested for binding in horizontal orientation. All 6 analyte channels were used for FN3 domains to maximize the screening throughput. The dissociation phase was monitored for 15 minutes at a flow rate of 100 μl/min using PBST as running buffer. […] Data analyses were performed using Bio-Rad ProteOn Manager software (version 3.1.0.6). Raw data were double referenced by subtraction of the interspot (empty chip surface, no protein immobilized or captured) signals to correct the non-specific binding of the FN3 domain to the pre-coated GAH-Fc IgG surface, followed by a double correction using empty channel L6 where no hCD8A-Fc was captured. The processed binding data were locally fit to a 1:1 simple Langmuir binding model to extract the koff for each FN3 domain binding to captured hCD8A-Fc.

[2] = biological target: T3, cynomolgus monkey CD8A on primary cynomolgus monkey CD8+ T cells (cynomolgus monkey, UniProt P01732 23-235 (human entry)); assay: flow cytometry, cyno CD8+ T cells, 2 uM FN3
T3 construct: also called Cyno CD8alpha
Description: as §1

[3] = biological target: T3, cynomolgus monkey CD8A on primary …; assay: flow cytometry, cyno CD8+ T cells, 0.2 uM FN3
Description: as §1

[4] = biological target: T1, human CD8 alpha (CD8A) on primary human …; assay: flow cytometry, human CD8+ T cells, 0.2 uM FN3
Description: as §1

T1 sequence (P01732 22-235): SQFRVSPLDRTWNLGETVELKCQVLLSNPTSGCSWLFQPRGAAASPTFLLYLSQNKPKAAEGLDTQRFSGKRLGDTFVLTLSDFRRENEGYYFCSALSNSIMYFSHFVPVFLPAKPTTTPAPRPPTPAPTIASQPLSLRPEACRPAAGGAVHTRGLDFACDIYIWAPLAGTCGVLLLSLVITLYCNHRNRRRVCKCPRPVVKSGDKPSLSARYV
T3 sequence (P01732 other isoform, or with tags, fused parts or gaps limits assumed): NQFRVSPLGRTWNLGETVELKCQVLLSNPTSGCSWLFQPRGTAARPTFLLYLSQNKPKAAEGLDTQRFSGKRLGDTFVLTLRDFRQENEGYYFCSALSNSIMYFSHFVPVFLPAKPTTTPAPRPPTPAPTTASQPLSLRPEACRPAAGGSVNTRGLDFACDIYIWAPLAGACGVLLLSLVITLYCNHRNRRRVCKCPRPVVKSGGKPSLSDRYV
T2 sequence (P01732 22-182 limits assumed): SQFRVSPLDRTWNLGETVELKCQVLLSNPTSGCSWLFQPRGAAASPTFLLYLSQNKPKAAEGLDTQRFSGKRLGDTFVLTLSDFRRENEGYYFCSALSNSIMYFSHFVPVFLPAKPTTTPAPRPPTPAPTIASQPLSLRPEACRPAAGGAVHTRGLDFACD

Row | Binder | Human T-cell Binding 2 uM (MFI) [1] [MFI] | koff (In house human CD8A-Fc) [s⁻¹] | Cyno T-cell Binding 2 uM (MFI) [2] [MFI] | Cyno T-cell Binding 0.2 uM (MFI) [3] [MFI] | Human T-cell Binding 0.2 uM (MFI) [4] [MFI]
1 | B1 | 15300 | 8.76e-05 | 40400 | 7360 | 3900
2 | B2 | 9610 | 0.00105 | 25800 | 2520 | 1570
3 | B3 | 3120 | 0.00059 | 7280 | 1940 | 1070
4 | B4 | 16500 | 0.000335 | 37200 | 9080 | 3740
5 | B5 | 11100 | 0.000285 | 27100 | 5700 | 3030
6 | B6 | 10800 | 0.000329 | 17700 | 2470 | 2500
7 | B7 | 16800 | 0.000127 | 41600 | 7060 | 4220
8 | B8 | 14500 | 0.000269 | 37700 | 6840 | 3450
9 | B9 | 5930 | 0.0001 | 18000 | 3840 | 2880
10 | B10 | 9780 | 0.000458 | 24500 | 5110 | 2900
11 | B11 | 6730 | 0.00021 | 10600 | 4100 | 2590
12 | B12 | 13700 | 2.64e-05 | 33500 | 7720 | 3660
13 | B13 | 12700 | 0.000102 | 32500 | 6830 | 3530
14 | B14 | 6180 | 0.000327 | 15900 | 2840 | 2010
15 | B15 | 9620 | 0.00211 | 26400 | 5520 | 1370
16 | B16 | 8970 | 7.28e-05 | 26300 | 3790 | 2620
17 | B17 | 7890 | 0.00036 | 27800 | 4100 | 2750
